In patent US20060234944A1 (OKLAHOMA MEDICAL RESEACH FOUNDATION, published 2006):
Each block holds one binder with its values, some of them ahead of it. Where no end group is shown, it is not given here. resin bead = not defined here; resin = not defined here

Columns and labels:
[1] = target: T1, memapsin 1 (auto-catalytically activated promemapsin 1-T1; amino acid residues 58-461 of SEQ ID NO: 4) (Homo sapiens (Human), UniProt Q9Y5Z0 63-466); experiment: inhibition of FS-2 fluorogenic substrate cleavage
T1 construct: also called Mep1; M1
T1 sequence: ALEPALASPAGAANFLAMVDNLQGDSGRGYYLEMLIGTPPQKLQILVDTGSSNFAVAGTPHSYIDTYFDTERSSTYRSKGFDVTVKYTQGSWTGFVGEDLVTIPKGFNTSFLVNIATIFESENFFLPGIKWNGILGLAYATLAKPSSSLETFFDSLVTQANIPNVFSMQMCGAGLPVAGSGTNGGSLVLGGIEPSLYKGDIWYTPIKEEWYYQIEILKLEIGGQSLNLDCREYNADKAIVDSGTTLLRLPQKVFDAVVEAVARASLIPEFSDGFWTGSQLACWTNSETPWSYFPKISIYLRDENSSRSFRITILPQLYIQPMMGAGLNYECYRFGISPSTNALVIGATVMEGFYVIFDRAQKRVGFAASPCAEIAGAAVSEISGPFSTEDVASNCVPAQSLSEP

[2] = target: T2, memapsin 2 (spontaneously activated promemapsin 2-T1; amino acids 43-456 and 45-456 of SEQ ID NO: 8) (human, UniProt P56817 41-454); experiment: inhibition of FS-2 fluorogenic substrate cleavage; paragraph 177 calls the same value Ki
T2 construct: The library probing says only 'recombinant memapsin 2'; also called BACE; ASP2

[3] = target: T2, memapsin 2 (spontaneously activated …); experiment: enzyme inhibition kinetics
[4] = target: T1, memapsin 1 (auto-catalytically …); experiment: ratio of Ki apparent for memapsin 1 to Ki apparent for memapsin 2
[5] = target: T2, memapsin 2 (spontaneously activated …); experiment: on-bead combinatorial inhibitor library, antibody/alkaline phosphatase staining
[6] = target: T2, memapsin 2 (spontaneously activated …); experiment: on-bead combinatorial inhibitor library probed with 4 nM memapsin 2, OM99-2 wash, antibody/alkaline phosphatase staining
[7] = target: T1, memapsin 1 (auto-catalytically …); experiment: on-bead combinatorial inhibitor library probed with memapsin 1, antibody/alkaline phosphatase staining
[8] = target: T2, memapsin 2 (spontaneously activated …); experiment: co-crystal structure

T2 sequence (P56817 41-454): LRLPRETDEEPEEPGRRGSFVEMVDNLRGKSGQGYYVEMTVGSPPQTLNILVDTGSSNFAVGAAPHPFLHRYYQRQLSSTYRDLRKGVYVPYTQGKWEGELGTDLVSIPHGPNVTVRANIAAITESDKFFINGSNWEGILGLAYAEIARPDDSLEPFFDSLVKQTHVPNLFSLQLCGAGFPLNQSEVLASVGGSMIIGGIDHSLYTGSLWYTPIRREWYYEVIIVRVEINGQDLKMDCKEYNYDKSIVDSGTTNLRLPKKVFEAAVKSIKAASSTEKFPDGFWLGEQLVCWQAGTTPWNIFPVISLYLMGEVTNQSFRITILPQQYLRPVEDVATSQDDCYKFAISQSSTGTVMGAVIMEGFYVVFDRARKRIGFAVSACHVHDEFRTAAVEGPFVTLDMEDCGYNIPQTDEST

Ki apparent [1]: 0.18 nM
Ki apparent [2]: 0.31 nM
Ki [3]: 0.3 nM
fold improvement of Ki over OM99-2 [3]: 5.2 fold
fold lower Ki than OM99-2 [3]: ~5 fold
Ki apparent (M1/M2) [4]: 0.59
Binder: ELDLAVEF (also: hydroxyethylene isostere in place of Leu4-Ala5 peptide bond) [OM00-3 (ELDL*AVEF)]

binding result [6]: binds
B2: library bead inhibitor Gly-Ile-Asp-Leu*Ala-Val-Tyr-Phe-Arg-Met-Gly-Gly-resin (peptide)
peptide: GIDLAVYFRMGG-resin
modifications: reading uncertain; also: hydroxyethylene isostere between Leu4 and Ala5, printed as Gly-Ile-Asp-Leu*Ala-Val-Tyr-Phe-Arg-Met-Gly-Gly-resin

binding result [7]: binds
B3: library bead inhibitor Gly-Leu-Asn-Leu*Ala-Val-Glu-Phe-Arg-Met-Gly-Gly-resin (peptide)
peptide: GLNLAVEFRMGG-resin
modifications: reading uncertain; also: hydroxyethylene isostere between Leu4 and Ala5, printed as Gly-Leu-Asn-Leu*Ala-Val-Glu-Phe-Arg-Met-Gly-Gly-resin

binding result [7]: binds
B4: library bead inhibitor Gly-Leu-Gln-Leu*Ala-Val-Ile-Phe-Arg-Met-Gly-Gly-resin (peptide)
peptide: GLQLAVIFRMGG-resin
modifications: reading uncertain; also: hydroxyethylene isostere between Leu4 and Ala5, printed as Gly-Leu-Gln-Leu*Ala-Val-Ile-Phe-Arg-Met-Gly-Gly-resin

binding result [7]: binds
B5: library bead inhibitor Gly-Ile-Phe-Leu*Ala-Val-Glu-Phe-Arg-Met-Gly-Gly-resin (peptide)
peptide: GIFLAVEFRMGG-resin
modifications: reading uncertain; also: hydroxyethylene isostere between Leu4 and Ala5, printed as Gly-Ile-Phe-Leu*Ala-Val-Glu-Phe-Arg-Met-Gly-Gly-resin

binding result [7]: binds
B11: library bead inhibitor Gly-Leu-Asp-Leu*Ala-Val-Thr-Phe-Arg-Met-Gly-Gly-resin (peptide)
peptide: GLDLAVTFRMGG-resin
modifications: reading uncertain; also: hydroxyethylene isostere between Leu4 and Ala5, printed as Gly-Leu-Asp-Leu*Ala-Val-Thr-Phe-Arg-Met-Gly-Gly-resin

binding result [7]: binds
B12: library bead inhibitor Gly-Leu-Glu-Leu*Ala-Val-Trp-Phe-Arg-Met-Gly-Gly-resin (peptide)
peptide: GLELAVWFRMGG-resin
modifications: reading uncertain; also: hydroxyethylene isostere between Leu4 and Ala5, printed as Gly-Leu-Glu-Leu*Ala-Val-Trp-Phe-Arg-Met-Gly-Gly-resin

binding result [7]: binds
B14: library bead inhibitor Gly-Leu-Asp-Leu*Ala-Val-Met-Phe-Arg-Met-Gly-Gly-resin (peptide)
peptide: GLDLAVMFRMGG-resin
modifications: reading uncertain; also: hydroxyethylene isostere between Leu4 and Ala5, printed as Gly-Leu-Asp-Leu*Ala-Val-Met-Phe-Arg-Met-Gly-Gly-resin

binding result [7]: binds
B15: library bead inhibitor Gly-Leu-Asp-Leu*Ala-Val-Lys-Phe-Arg-Met-Gly-Gly-resin (peptide)
peptide: GLDLAVKFRMGG-resin
modifications: reading uncertain; also: hydroxyethylene isostere between Leu4 and Ala5, printed as Gly-Leu-Asp-Leu*Ala-Val-Lys-Phe-Arg-Met-Gly-Gly-resin

binding result [7]: binds
B16: library bead inhibitor Gly-Leu-Asp-Leu*Ala-Val-Leu-Phe-Arg-Met-Gly-Gly-resin (peptide)
peptide: GLDLAVLFRMGG-resin
modifications: reading uncertain; also: hydroxyethylene isostere between Leu4 and Ala5, printed as Gly-Leu-Asp-Leu*Ala-Val-Leu-Phe-Arg-Met-Gly-Gly-resin

binding result [5]: no binding (tested: 4 nM memapsin 2)
B17: library bead Neg1: Gly-Phe-Met-Leu*Ala-Asn-Arg-Phe-Arg-Met-Gly-Gly-resin (peptide)
peptide: GFMLANRFRMGG-resin
modifications: reading uncertain; also: hydroxyethylene isostere between Leu4 and Ala5, printed as Gly-Phe-Met-Leu*Ala-Asn-Arg-Phe-Arg-Met-Gly-Gly-resin
notes: Randomly selected negative control bead

binding result [6]: binds
B19: library bead inhibitor Gly-Leu-Asp-Leu*Ala-Val-Gln-Phe-Arg-Met-Gly-Gly-resin (peptide)
peptide: GLDLAVQFRMGG-resin
modifications: reading uncertain; also: hydroxyethylene isostere between Leu4 and Ala5, printed as Gly-Leu-Asp-Leu*Ala-Val-Gln-Phe-Arg-Met-Gly-Gly-resin

binding result [6]: binds
B20: library bead inhibitor Gly-Leu-Glu-Leu*Ala-Val-Glu-Phe-Arg-Met-Gly-Gly-resin (peptide)
peptide: GLELAVEFRMGG-resin
modifications: reading uncertain; also: hydroxyethylene isostere between Leu4 and Ala5, printed as Gly-Leu-Glu-Leu*Ala-Val-Glu-Phe-Arg-Met-Gly-Gly-resin

The remaining lines, values behind:

B1: library bead Neg2: Gly-Asp-Phe-Leu*Ala-(not printed)-Ser-Phe-Arg-Met-Gly-Gly-resin (peptide)
peptide: GDFLAXSFRMGG-{resin bead}
modifications: not fully specified; X: residue not identified in the source; also: hydroxyethylene isostere between Leu4 and Ala5
notes: as for B17
binding result [5]: no binding (tested: 4 nM memapsin 2)

B6: OM99-2 (EVNL*AAEF) (peptide)
peptide: EVNXXAEF
modifications: hydroxyethylene transition-state isostere (*) in place of the peptide bond between Leu4 (P1) and Ala5 (P1′)
notes: also called EVNLΨAAEF
binding result [8]: binds

B7: library bead inhibitor Gly-Ile-Asn-Leu*Ala-Val-Leu-Phe-Arg-Met-Gly-Gly-resin (peptide)
peptide: GINLAVLFRMGG-resin
modifications: reading uncertain; also: hydroxyethylene isostere between Leu4 and Ala5, printed as Gly-Ile-Asn-Leu*Ala-Val-Leu-Phe-Arg-Met-Gly-Gly-resin
binding result [7]: binds

B8: library bead inhibitor Gly-Ile-Asp-Leu*Ala-Val-Val-Phe-Arg-Met-Gly-Gly-resin (peptide)
peptide: GIDLAVVFRMGG-resin
modifications: reading uncertain; also: hydroxyethylene isostere between Leu4 and Ala5, printed as Gly-Ile-Asp-Leu*Ala-Val-Val-Phe-Arg-Met-Gly-Gly-resin
binding result [7]: binds

B9: library bead inhibitor Gly-Ile-Asp-Leu*Ala-Val-Asn-Phe-Arg-Met-Gly-Gly-resin (peptide)
peptide: GIDLAVNFRMGG-resin
modifications: reading uncertain; also: hydroxyethylene isostere between Leu4 and Ala5, printed as Gly-Ile-Asp-Leu*Ala-Val-Asn-Phe-Arg-Met-Gly-Gly-resin
binding result [7]: binds

B10: library bead inhibitor Gly-Leu-Asp-Leu*Ala-Val-Trp-Phe-Arg-Met-Gly-Gly-resin (peptide)
peptide: GLDLAVWFRMGG-resin
modifications: reading uncertain; also: hydroxyethylene isostere between Leu4 and Ala5, printed as Gly-Leu-Asp-Leu*Ala-Val-Trp-Phe-Arg-Met-Gly-Gly-resin
binding result [7]: binds

B13: library bead inhibitor Gly-Leu-Glu-Leu*Ala-Val-Gln-Phe-Arg-Met-Gly-Gly-resin (peptide)
peptide: GLELAVQFRMGG-resin
modifications: reading uncertain; also: hydroxyethylene isostere between Leu4 and Ala5, printed as Gly-Leu-Glu-Leu*Ala-Val-Gln-Phe-Arg-Met-Gly-Gly-resin
binding result [6]: binds
binding result [7]: binds

B18: library bead inhibitor Gly-Leu-Asp-Leu*Ala-Val-Glu-Phe-Arg-Met-Gly-Gly-resin (peptide)
peptide: GLDLAVEFRMGG-resin
modifications: reading uncertain; also: hydroxyethylene isostere between Leu4 and Ala5, printed as Gly-Leu-Asp-Leu*Ala-Val-Glu-Phe-Arg-Met-Gly-Gly-resin
binding result [6]: binds

B21: library bead inhibitor Gly-Leu-Phe-Leu*Ala-Val-Glu-Phe-Arg-Met-Gly-Gly-resin (peptide)
peptide: GLFLAVEFRMGG-resin
modifications: reading uncertain; also: hydroxyethylene isostere between Leu4 and Ala5, printed as Gly-Leu-Phe-Leu*Ala-Val-Glu-Phe-Arg-Met-Gly-Gly-resin
binding result [6]: binds
